Article PMC5668257

Target: EB1 (dog (endogenous in MDCK))
Experiment: FRET or BRET; immuno-FRET by acceptor photobleaching at the centrosome area of fixed mitotic MDCK cells; primary antibodies with secondary antibodies labelled with Alexa 555 (donor) and Cy5 or Alexa 633 (acceptor), 1 donor : 2 acceptor

FRET efficiency (donor AKAP350, acceptor EB1): 11% | FRET efficiency (donor EB1, acceptor AKAP350): 5%
Substance: AKAP350 (natural protein)
